We go through two molecules from patent publication US20130280279A1, “PHARMACEUTICAL COMPOSITION OF A COMPLEX OF AN ANTI-DIG ANTIBODY AND DIGOXIGENIN THAT IS CONJUGATED TO A PEPTIDE” (HOFFMANN-LA ROCHE INC., priority 2011, published 2013).

In assay [1] the target is digoxigenated nucleic acids (siRNA-Dig). Description: SPR (Biacore) binding to digoxigenated nucleic acids. To be noted: 25° C., read-out: Kd towards digoxigenated nucleic acids (siRNA-Dig). On the procedure:
For that, binding properties of the recombinant <Dig> derivatives were analyzed by surface plasmon resonance (SPR) technology using a Biacore T100 or Biacore 3000 instrument (GE Healthcare Bio-Sciences AB, Uppsala). This system is well established for the study of molecule interactions. It allows a continuous real-time monitoring of ligand/analyte bindings and thus the determination of association rate constants (ka), dissociation rate constants (kd), and equilibrium constants (KD) in various assay settings. SPR-technology is based on the measurement of the refractive index close to the surface of a gold coated biosensor chip. Changes in the refractive index indicate mass changes on the surface caused by the interaction of immobilized ligand with analyte injected in solution. […]
Anti-mouse IgG antibody was immobilized on the surface of a CM5 biosensor chip in the same fashion as described above. […] The samples to be analyzed were diluted in HBS-P (10 mM HEPES, pH 7.4, 150 mM NaCl, 0.005% Surfactant P20) and injected at a flow rate of 5 μl/min. […] Signals were detected at a rate of one signal per second. […]
Anti-mouse and anti-human IgG antibodies were immobilized on the surface of a CM5 biosensor chip in the same fashion as described above. The samples to be analyzed were diluted in HBS-P and injected at a flow rate of 5 μl/min. […]
For orientation: Surface plasmon resonance follows binding to a sensor surface in real time, without labels.

In another assay the test system is DIG-myoglobin. Briefly: SPR binding to mono-digoxigenated protein DIG-myoglobin. How it is done:
Further SPR studies were performed in which the binding affinity of the humanized <DIG>-IgG, IGF1R-DIG and the murine <DIG>M-19-11 was compared in binding to a mono-digoxigenated protein DIG-myoglobin.

B1: humanized DIG-IgG: humanized IgG with the binding specificity of murine <Dig> 19-11 (antibody, V domains shown)
VH: QVQLVESGGGLVKPGGSLRLSCAASGFTFSDYAMSWIRQAPGKGLEWVSSINIGATYIYYADSVKGRFTISRDNAKNSLYLQMNSLRAEDTAVYYCARPGSPYEYDKAYYSMAYWGQGTTVTVSS
VL: DIQMTQSPSSLSASVGDRVTITCRASQDIKNYLNWYQQKPGKAPKLLIYYSSTLLSGVPSRFSGSGSGTDFTLTISSLQPEDFATYYCQQSITLPPTFGGGTKVEIKR
For B1, the equilibrium dissociation constant (Kd) (as a rule, the equilibrium constant for the complex coming apart) in assay [1] amounted to 12 nM.

B2: murine DIG-IgG 19-11: monoclonal murine <Dig> IgG1 kappa antibody from hybridoma clone 19-11 (antibody, V domains shown)
VH: EVQLVESGGGLVKPGGSLKLSCAVSGFTFSDYAMSWIRQTPENRLEWVASINIGATYAYYPDSVKGRFTISRDNAKNTLFLQMSSLGSEDTAMYYCARPGSPYEYDKAYYSMAYWGPGTSVTVSS
VL: DVQMTQSTSSLSASLGDRVTISCRASQDIKNYLNWYQQKPGGTVKLLIYYSSTLLSGVPSRFSGRGSGTDFSLTITNLEREDIATYFCQQSITLPPTFGGGTKLEIK
For the molecule B2, the Kd in assay [1] is 0.269 nM. In the assay with DIG-myoglobin, the “affinity to DIG-Myo compared with the humanized derivatives” value is on record as “clearly better”.
